Here are results for 1 molecule from patent US20050265970A1 (UNIVERSITY OF CHICAGO, published 2005).

For experiment [1], the target named is T1, HA-MEKK4 (full-length murine, in 293 cells) (murine, UniProt O08648 1-1597, limits assumed).
T1 construct: also called MEKK4/MTK1; not shown: HA tag
Put plainly: co-IP from 293 cells.

The target in experiment [2] is T2, HA-GCK (full-length human, in 293 cells) (human, UniProt Q12851 1-820).
T2 construct: not shown: HA tag
T2 sequence (looked up): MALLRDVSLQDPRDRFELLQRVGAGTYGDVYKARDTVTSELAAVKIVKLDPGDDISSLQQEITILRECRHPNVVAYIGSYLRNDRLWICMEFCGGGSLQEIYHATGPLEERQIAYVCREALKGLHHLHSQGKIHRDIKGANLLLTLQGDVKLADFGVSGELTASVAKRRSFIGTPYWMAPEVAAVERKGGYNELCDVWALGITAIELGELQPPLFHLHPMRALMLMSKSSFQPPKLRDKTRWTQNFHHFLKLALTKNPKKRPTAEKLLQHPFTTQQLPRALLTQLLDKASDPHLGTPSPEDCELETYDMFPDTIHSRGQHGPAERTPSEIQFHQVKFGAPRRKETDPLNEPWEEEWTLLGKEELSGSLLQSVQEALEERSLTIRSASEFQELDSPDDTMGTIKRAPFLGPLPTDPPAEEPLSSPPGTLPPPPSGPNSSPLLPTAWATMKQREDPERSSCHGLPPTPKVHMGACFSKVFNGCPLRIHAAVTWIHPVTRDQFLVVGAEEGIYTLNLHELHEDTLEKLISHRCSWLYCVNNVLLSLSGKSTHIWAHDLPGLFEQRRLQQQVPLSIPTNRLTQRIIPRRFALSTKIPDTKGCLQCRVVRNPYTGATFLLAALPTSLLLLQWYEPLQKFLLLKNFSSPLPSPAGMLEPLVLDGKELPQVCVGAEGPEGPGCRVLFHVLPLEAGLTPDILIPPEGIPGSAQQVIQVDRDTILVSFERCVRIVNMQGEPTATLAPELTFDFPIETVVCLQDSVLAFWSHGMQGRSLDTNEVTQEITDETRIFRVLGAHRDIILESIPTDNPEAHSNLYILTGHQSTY
Description: combined immunoprecipitation and Western blot, 293 cells.

Experiment [3] concerns the target T3, HA-GCKR (full-length human, in 293 cells) (human, UniProt Q9Y4K4 1-846).
T3 construct: not shown: HA tag
The experiment is described as above.

Experiment [4] has as its target T4, HA-MEKK1 (full-length human, in 293 cells) (human, UniProt Q13233 1-1512, limits assumed).
T4 construct: not shown: HA tag
Description: co-IP from 293 cells, anti-FLAG beads, anti-HA Western blot.

Experiment [5] has as its target T5, HA-MEKK3 (full-length human, in 293 cells) (human, UniProt Q99759 1-626, limits assumed).
T5 construct: not shown: HA tag
T5 sequence (looked up): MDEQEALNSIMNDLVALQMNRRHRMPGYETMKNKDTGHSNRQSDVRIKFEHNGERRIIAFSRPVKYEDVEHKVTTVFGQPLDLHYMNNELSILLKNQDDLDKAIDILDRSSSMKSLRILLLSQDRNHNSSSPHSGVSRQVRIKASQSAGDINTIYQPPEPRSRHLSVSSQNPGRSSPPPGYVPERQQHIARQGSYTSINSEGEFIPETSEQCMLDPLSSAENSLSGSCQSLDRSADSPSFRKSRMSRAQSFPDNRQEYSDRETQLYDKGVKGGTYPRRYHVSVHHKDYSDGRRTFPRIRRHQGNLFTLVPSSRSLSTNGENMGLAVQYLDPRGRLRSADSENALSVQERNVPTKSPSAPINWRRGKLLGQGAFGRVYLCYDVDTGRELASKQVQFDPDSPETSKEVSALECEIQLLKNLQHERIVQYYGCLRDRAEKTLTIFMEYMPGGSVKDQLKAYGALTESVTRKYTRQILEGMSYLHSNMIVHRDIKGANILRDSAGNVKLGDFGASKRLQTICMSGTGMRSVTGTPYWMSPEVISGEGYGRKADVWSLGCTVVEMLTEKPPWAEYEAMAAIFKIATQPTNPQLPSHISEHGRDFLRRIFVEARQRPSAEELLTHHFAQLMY
The experiment is described as above.

The target in experiment [6] is T6, HA-ASK1 (full-length human, in 293 cells) (human, UniProt Q99683 1-1374).
T6 construct: not shown: HA tag
T6 sequence (looked up): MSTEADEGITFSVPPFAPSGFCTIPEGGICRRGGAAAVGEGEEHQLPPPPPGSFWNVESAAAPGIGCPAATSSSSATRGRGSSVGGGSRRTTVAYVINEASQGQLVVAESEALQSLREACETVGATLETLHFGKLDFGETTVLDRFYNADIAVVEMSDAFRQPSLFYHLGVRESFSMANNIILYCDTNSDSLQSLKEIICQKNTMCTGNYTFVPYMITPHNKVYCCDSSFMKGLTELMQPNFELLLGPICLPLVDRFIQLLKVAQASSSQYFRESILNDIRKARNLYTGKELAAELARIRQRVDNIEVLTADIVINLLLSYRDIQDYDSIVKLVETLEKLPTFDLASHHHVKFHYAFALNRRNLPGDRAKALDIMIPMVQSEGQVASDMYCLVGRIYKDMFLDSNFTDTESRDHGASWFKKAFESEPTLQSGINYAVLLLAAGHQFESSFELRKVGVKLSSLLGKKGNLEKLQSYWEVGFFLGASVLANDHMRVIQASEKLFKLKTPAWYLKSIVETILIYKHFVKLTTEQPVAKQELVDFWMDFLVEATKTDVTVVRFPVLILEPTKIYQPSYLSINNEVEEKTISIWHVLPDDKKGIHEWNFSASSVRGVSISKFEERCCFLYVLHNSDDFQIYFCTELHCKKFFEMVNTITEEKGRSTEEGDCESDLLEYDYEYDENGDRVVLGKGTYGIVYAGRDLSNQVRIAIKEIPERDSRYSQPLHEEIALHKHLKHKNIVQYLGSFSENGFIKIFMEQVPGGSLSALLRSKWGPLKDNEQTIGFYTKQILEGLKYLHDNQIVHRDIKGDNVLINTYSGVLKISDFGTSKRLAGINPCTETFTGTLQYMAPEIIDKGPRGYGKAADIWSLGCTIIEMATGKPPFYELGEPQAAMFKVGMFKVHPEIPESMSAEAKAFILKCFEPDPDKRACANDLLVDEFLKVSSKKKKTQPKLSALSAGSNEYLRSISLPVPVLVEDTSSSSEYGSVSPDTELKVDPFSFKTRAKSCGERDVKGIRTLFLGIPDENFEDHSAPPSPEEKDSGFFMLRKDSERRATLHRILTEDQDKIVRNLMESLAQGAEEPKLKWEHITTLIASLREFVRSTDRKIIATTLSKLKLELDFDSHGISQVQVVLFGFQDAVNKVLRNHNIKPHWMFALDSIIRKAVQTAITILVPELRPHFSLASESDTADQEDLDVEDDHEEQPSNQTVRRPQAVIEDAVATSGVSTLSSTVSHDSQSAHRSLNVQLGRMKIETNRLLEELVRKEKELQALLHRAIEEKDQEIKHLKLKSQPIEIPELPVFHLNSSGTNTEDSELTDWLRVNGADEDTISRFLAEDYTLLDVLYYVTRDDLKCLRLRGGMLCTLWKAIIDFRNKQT
The experiment is described as above.

T3 sequence (Q9Y4K4 whole entry): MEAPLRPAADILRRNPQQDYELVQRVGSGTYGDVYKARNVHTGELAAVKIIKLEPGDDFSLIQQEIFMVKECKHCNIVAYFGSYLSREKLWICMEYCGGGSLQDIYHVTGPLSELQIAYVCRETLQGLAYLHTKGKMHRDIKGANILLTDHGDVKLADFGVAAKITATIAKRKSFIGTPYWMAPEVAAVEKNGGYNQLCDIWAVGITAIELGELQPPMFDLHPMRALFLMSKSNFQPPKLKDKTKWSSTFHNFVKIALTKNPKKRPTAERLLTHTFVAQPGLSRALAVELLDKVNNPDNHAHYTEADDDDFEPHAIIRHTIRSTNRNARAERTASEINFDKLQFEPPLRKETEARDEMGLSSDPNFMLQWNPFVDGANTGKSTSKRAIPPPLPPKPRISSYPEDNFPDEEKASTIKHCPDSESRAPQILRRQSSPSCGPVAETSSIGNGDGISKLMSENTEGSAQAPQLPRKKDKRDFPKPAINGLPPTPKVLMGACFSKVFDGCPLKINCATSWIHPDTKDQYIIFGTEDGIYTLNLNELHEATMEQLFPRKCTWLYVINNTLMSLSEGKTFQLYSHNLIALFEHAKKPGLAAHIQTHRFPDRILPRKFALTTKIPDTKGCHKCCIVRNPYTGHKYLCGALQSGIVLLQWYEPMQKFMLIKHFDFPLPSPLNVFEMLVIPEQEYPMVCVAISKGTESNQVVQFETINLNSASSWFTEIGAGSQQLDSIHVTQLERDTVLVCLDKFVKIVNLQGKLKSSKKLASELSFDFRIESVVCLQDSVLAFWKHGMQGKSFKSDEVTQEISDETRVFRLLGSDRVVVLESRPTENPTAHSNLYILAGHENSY
T1 sequence (O08648 whole entry): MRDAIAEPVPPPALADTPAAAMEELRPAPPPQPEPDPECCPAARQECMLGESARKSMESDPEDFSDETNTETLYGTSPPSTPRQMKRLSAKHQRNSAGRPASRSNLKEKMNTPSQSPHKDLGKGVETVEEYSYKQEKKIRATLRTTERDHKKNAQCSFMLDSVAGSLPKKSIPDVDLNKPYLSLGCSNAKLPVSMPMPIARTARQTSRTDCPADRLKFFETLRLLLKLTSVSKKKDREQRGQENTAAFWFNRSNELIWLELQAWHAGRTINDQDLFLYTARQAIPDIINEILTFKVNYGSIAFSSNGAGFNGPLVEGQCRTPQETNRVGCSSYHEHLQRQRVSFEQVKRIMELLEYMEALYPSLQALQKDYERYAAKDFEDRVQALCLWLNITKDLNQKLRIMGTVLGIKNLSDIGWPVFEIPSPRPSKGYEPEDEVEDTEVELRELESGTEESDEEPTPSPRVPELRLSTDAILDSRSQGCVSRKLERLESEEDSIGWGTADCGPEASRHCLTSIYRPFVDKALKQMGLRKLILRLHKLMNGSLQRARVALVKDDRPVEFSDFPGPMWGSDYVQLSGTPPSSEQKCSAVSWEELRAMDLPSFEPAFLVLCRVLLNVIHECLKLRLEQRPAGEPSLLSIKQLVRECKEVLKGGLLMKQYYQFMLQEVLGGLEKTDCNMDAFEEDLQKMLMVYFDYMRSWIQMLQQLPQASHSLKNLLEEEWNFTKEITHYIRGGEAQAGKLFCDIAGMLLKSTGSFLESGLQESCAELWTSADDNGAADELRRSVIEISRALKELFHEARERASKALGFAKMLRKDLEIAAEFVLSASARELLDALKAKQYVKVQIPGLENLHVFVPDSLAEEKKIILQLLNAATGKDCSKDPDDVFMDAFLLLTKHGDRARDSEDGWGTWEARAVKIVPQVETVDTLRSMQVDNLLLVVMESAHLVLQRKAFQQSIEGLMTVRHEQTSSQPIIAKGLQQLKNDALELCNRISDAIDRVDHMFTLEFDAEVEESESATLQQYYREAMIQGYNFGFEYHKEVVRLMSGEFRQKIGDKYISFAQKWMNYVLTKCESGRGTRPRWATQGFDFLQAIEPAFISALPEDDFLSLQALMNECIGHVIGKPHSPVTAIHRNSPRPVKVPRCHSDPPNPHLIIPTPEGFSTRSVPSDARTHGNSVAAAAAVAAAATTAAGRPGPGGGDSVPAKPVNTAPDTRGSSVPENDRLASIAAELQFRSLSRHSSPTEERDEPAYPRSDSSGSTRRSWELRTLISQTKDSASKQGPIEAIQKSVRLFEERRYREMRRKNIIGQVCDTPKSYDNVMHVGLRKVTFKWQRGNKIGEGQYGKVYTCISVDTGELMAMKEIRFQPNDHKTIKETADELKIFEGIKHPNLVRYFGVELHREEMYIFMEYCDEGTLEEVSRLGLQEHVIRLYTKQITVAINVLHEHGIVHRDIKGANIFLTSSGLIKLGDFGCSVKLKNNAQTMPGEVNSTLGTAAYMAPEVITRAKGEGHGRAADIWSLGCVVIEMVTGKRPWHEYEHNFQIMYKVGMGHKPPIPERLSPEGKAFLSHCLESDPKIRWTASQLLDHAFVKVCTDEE
T4 sequence (Q13233 whole entry): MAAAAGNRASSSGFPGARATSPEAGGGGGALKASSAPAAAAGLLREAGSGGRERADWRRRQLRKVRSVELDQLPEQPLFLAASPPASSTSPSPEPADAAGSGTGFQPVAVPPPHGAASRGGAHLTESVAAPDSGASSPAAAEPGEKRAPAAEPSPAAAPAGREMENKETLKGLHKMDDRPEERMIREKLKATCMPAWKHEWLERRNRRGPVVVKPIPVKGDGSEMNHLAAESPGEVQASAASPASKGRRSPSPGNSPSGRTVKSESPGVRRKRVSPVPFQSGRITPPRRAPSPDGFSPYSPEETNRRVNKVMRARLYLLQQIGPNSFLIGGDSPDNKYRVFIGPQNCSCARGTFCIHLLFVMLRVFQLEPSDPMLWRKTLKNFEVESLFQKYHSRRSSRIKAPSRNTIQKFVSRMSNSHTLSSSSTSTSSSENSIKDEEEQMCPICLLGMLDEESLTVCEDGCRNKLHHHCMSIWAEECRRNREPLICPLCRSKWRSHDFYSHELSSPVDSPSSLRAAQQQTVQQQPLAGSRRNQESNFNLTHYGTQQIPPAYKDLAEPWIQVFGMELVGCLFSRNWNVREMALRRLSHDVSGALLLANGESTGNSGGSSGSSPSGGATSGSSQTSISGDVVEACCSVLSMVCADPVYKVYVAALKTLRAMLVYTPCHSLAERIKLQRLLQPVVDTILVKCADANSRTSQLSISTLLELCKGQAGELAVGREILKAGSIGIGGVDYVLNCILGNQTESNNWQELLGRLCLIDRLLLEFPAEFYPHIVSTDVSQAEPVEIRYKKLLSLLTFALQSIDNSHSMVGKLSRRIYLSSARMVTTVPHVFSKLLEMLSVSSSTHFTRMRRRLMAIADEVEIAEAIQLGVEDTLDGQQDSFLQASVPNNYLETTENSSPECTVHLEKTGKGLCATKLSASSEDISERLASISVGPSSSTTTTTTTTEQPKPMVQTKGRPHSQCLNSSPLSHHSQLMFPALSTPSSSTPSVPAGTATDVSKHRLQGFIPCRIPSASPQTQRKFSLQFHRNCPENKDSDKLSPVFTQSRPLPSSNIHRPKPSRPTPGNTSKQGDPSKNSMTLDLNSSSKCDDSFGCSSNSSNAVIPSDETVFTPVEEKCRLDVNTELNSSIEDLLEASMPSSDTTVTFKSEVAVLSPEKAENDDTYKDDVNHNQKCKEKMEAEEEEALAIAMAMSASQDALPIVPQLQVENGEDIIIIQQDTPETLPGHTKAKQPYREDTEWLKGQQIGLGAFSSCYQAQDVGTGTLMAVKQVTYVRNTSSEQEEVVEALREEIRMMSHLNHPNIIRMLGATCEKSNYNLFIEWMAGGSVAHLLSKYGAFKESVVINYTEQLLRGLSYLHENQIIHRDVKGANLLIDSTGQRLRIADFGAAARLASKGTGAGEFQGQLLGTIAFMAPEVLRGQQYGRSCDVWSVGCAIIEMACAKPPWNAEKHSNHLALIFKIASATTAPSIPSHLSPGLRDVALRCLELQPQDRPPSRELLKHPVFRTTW

B1: FLAG-Gadd45β (full-length murine Gadd45β, pcDNA-FLAG-Gadd45β, expressed in 293 cells) (other, UniProt P22339 1-160, looked up)
chain: MTLEELVASDNAVQKMQAVTAAVEQLLVAAQRQDRLTVGVYEAAKLMNVDPDSVVLCLLAIDEEEEDDIALQIHFTLIQSFCCDNDIDIVRVSGMQRLAQLLGEPAETLGTTEARDLHCLLVTNCHTDSWKSQGLVEVASYCEESRGNNQWVPYISLEER
notes: range 1-160; Co-expressed with HA-tagged kinases in 293 cells for co-immunoprecipitation; not shown: FLAG tag
On to B1, for which the binding result in experiment [1] is “binds”; in experiment [2], “no binding”; in experiment [3], “no binding”; in experiment [4], “no binding”; in experiment [5], “no binding”; in experiment [6], “binds”.
